Columns and labels:
human LILRA1 (human) = human LILRA1 (human) (UniProt O75019); assay: flow cytometry, LILRA1 CHOs
human LILRA4 (human) = human LILRA4 (human) (UniProt P59901); assay: flow cytometry, LILRA4 CHOs
[1] = target: Cyno Monocytes / Cyno Neutrophils (Macaca fascicularis); assay: flow cytometry, cyno whole blood, monocytes
[2] = target: human LILRB2 expressed on cells (human) (UniProt Q8N423); assay: flow cytometry, human whole blood, monocytes
[3] = target: Cyno Monocytes / Cyno Neutrophils (Macaca fascicularis); assay: flow cytometry, cyno whole blood, neutrophils
[4] = target: Rhesus Monocytes / Rhesus Neutrophils (Macaca mulatta); assay: flow cytometry, rhesus whole blood, monocytes
[5] = target: human LILRB2 expressed on cells (human) (UniProt Q8N423); assay: flow cytometry, human whole blood, neutrophils
[6] = target: Rhesus Monocytes / Rhesus Neutrophils (Macaca mulatta); assay: flow cytometry, rhesus whole blood, neutrophils

Chain of human LILRB2 expressed on cells (human) (Q8N423 other isoform, or with tags, fused parts or gaps limits assumed): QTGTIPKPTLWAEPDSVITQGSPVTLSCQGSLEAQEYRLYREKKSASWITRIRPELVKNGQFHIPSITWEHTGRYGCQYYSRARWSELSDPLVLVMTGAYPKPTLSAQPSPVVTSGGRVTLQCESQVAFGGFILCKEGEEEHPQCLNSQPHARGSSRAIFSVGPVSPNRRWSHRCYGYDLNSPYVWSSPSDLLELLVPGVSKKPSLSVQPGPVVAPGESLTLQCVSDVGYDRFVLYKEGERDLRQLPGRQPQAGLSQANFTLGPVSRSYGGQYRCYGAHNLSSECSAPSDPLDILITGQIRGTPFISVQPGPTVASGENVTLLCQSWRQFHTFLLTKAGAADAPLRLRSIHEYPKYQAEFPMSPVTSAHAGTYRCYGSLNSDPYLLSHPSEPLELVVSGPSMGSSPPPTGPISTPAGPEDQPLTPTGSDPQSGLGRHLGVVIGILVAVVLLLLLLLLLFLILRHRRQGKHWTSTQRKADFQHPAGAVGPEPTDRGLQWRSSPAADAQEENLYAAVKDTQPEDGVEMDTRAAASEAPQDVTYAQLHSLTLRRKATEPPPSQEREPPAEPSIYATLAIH
Chain of human LILRA1 (human) (O75019 17-489 limits assumed): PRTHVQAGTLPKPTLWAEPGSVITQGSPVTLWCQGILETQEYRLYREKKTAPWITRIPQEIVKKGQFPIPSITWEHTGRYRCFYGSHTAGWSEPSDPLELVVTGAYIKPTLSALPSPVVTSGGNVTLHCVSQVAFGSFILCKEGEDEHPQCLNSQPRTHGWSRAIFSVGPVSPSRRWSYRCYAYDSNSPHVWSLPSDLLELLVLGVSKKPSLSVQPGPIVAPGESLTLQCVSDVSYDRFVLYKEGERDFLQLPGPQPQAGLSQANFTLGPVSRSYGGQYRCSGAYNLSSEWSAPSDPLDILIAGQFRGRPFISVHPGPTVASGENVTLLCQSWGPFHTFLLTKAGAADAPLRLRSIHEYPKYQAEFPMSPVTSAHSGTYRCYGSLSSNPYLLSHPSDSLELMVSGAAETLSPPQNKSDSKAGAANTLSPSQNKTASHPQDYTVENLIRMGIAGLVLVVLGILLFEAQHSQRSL
Chain of human LILRA4 (human) (P59901 other isoform, or with tags, fused parts or gaps limits assumed): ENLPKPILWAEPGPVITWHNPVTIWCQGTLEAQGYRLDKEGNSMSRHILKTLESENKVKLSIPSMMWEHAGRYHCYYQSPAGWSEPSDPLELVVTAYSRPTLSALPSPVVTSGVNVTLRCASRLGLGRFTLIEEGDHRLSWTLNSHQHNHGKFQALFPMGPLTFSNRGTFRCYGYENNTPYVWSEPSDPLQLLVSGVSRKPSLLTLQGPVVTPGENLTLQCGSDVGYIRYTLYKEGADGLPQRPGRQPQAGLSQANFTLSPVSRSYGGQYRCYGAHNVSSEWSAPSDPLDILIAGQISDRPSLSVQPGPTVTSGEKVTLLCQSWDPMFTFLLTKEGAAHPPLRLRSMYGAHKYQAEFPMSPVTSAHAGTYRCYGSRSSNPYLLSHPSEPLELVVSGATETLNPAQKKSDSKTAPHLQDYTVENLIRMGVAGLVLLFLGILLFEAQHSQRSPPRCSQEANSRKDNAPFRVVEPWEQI

isotype control mAb (antibody)
1: binding (fold over iso) (fold over iso) (human LILRA1 (human)) | binding (fold over iso) (fold over iso) (human LILRA4 (human)) | Cyno Monocytes binding (fold over iso) (fold over iso) [1] | Human Monocytes binding (fold over iso) (fold over iso) [2] | Cyno Neutrophils binding (fold over iso) (fold over iso) [3] | Rhesus Monocytes binding (fold over iso) (fold over iso) [4] | Human Neutrophils binding (fold over iso) (fold over iso) [5] | Rhesus Neutrophils binding (fold over iso) (fold over iso) [6]

Reference: patent US20200339690A1
